Results on three molecules are retold here after patent US20240262919A1 (SHANGHAITECH UNIVERSITY, published 2024).

For orientation: Kd means the constant that tells how readily two partners part at equilibrium. A word on the koff: it is the first-order rate constant of dissociation. Broadly, the kon is a measure of how fast the partners come together. One may read the EC50 as the concentration giving half of the maximal effect. Broadly, the IC50 is the concentration that inhibits the measured activity by half. In general, EC50 (read off the curve) refers to the concentration at which the effect is half-maximal.

Assay [1] concerns the target T1, human IL-18Rα ECD Fc fusion (816-LR-100; R&D Systems) (human, UniProt Q13478 22-329).
T1 construct: extracellular domain; Bought protein; also called Human receptor; not shown: Fc tag of the bought fusion protein, not described
T1 sequence (looked up): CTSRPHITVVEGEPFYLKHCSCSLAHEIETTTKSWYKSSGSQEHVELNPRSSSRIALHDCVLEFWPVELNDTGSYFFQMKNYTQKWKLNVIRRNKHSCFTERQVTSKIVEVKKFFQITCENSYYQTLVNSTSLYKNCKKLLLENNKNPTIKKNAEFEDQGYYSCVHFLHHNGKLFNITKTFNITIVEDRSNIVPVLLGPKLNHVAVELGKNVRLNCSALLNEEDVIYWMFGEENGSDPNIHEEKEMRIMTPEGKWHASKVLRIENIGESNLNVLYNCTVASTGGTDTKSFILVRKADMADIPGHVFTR
Briefly: SPR, Fab on human receptor. In general terms: SPR reads the build-up and loss of mass on a sensor chip optically.

Assay [2] has as its target T1, human IL-18Rα ECD Fc fusion …. Briefly: multipoint direct binding ELISA (drawn table, column EC50 (nM)); the cell equals that of row A3. Background: An ELISA detects its analyte on a solid surface through an enzyme-linked reagent.
Assay [3] has the same target. Briefly: competitive binding ELISA with soluble receptor (drawn table, column IC50 (nM)); the cell equals that of row A3.
For assay [4] the target is unchanged. The assay can be described thus: direct binding ELISA on immobilised human IL-18Rα (target after legend paragraph 36 and the table of panel C), OD 450 against concentration; panel title and axes say IgG, the key and legend say Fab.
For assay [5] the target is unchanged. The assay can be described thus: competitive ELISA with a dilution series of soluble receptor; the axis is printed 'Soluble hIL18Rβ concentration (nM)', but legend paragraph 36 and the table of panel C give IL-18Rα for this trace; the competitor is the immobilised receptor; y axis printed 'Inhibition (%)'.
Assay [6] has as its target T2, human IL-18Rβ ECD Fc fusion (118-AP-100, R&D Systems) (human, UniProt O95256 20-356).
T2 construct: Bought protein; also called hIL-18Rβ; recombinant human IL-18Rb; not shown: Fc tag of the bought fusion protein, not described
T2 sequence: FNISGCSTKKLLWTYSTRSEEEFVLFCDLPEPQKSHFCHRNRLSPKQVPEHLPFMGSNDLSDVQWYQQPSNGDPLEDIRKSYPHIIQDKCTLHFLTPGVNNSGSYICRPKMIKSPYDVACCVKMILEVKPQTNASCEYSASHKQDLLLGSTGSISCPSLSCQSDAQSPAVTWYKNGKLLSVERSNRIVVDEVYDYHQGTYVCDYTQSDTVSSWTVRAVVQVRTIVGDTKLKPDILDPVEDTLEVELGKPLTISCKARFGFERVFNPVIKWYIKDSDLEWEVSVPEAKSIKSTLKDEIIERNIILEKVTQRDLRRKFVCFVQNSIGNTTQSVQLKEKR
The assay can be described thus: SPR (Table 5 title), Fab on human receptor.

The target in a further assay is T3, mouse IL-18Rβ (mouse, UniProt Q9Z2B1 20-356, limits assumed).
T3 construct: also called Mouse receptor; mouse ortholog
T3 sequence (looked up): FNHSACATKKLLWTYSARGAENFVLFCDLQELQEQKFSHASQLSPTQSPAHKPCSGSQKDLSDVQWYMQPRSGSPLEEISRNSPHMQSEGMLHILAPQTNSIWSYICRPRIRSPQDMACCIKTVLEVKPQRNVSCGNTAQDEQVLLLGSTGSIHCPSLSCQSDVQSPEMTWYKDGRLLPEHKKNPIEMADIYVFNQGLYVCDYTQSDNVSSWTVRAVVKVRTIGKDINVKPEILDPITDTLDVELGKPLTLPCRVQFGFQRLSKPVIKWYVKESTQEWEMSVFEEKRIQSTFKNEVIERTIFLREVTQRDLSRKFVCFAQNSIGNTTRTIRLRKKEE
The assay can be described thus: SPR (Table 5 title), Fab on mouse receptor.

Assay [7] has as its target T2, human IL-18Rβ ECD Fc fusion …. Briefly: multipoint direct binding ELISA (drawn table, column EC50 (nM)).
For assay [8] the target is unchanged. Briefly: competitive binding ELISA with soluble receptor (drawn table, column IC50 (nM)).
For assay [9] the target is unchanged. Briefly: biolayer interferometry (BLI) after legend paragraph 36; drawn table, head KD (nM), Human receptor. (Biolayer interferometry detects binding as a change in optical thickness at a sensor tip.)
For assay [10] the target is unchanged. The assay can be described thus: biolayer interferometry (BLI) after legend paragraph 36; drawn table, head kd (10^-4 s^-1), Human receptor.
Assay [11] shares this target. Briefly: biolayer interferometry (BLI) after legend paragraph 36; drawn table, head ka (10^4 M^-1 s^-1), Human receptor.
For assay [12] the target is unchanged. The assay can be described thus: direct binding ELISA on immobilised human IL-18Rβ, OD 450 against concentration; panel title and axes say IgG, the key and legend paragraph 36 say Fab.
Assay [13] has the same target. The assay can be described thus: competitive ELISA: signal on immobilised receptor after incubation with a two-fold dilution series of soluble hIL-18Rβ; the concentration axis is the soluble receptor; y axis printed 'Inhibition (%)'.
Assay [14] has as its target T4, Rhesus IL-18Rβ (rhesus, UniProt F7HHC1 20-356).
T4 construct: also called rhesus IL-18 receptor beta; monkey IL-18Rβ
T4 sequence: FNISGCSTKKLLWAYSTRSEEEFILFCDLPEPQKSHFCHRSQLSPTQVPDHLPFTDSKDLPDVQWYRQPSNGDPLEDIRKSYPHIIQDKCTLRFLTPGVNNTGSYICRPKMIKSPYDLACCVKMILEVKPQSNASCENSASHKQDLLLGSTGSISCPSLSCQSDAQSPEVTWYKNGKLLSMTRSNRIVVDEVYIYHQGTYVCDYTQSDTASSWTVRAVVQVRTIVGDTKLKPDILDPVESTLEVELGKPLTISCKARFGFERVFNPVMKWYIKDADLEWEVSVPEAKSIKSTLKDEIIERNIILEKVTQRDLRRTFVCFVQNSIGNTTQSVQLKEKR
The assay can be described thus: SPR.

Assay [15] deals with T4, Rhesus IL-18Rβ. Briefly: multipoint direct binding ELISA.

B1: Fab 12 (Fab)
heavy: EVQLVESGGGLVQPGGSLRLSCAASGFNISSSSIHWVRQAPGKGLEWVASISPSYSSTYYADSVKGRFTISADTSKNTAYLQMNSLRAEDTAVYYCARGAFDYWGQGTLVTVSSASTKGPSVFPLAPSSKSTSGGTAALGCLVKDYFPEPVTVSWNSGALTSGVHTFPAVLQSSGLYSLSSVVTVPSSSLGTQTYICNVNHKPSNTKVDKKVEPKSCDKTHT
light: DIQMTQSPSSLSASVGDRVTITCRASQSVSSAVAWYQQKPGKAPKLLIYSASSLYSGVPSRFSGSRSGTDFTLTISSLQPEDFATYYCQQYWHPFTFGQGTKVEIKRTVAAPSVFIFPPSDSQLKSGTASVVCLLNNFYPREAKVQWKVDNALQSGNSQESVTEQDSKDSTYSLSSTLTLSKADYEKHKVYACEVTHQGLSSPVTKSFNRGECGGSDYKDDDDK
notes: Anti-IL-18Rα Fab; also called F12
In assay [1], B1 had a Kd of 1.9 nM, a koff of 0.0002 s⁻¹ and a kon of 110000 M⁻¹ s⁻¹. For the same molecule, in assay [2], the 50% effective concentration (EC50) turned out to be 86 nM. The same molecule gave a 50% inhibitory concentration (IC50) in assay [3] of 105 nM. Also, the “EC50 (read off the curve)” value in assay [4] is about 0.8 nM. Also, the “IC50 (read off the curve)” value in assay [5] was about 20 nM.

B2: Fab 3144 (Fab)
heavy: EVQLVESGGGLVQPGGSLRLSCAASGFNLSYYSIHWVRQAPGKGLEWVASIYSYSGYTSYADSVKGRFTISADTSKNTAYLQMNSLRAEDTAVYYCARSSAMDYWGQGTLVTVSSASTKGPSVFPLAPSSKSTSGGTAALGCLVKDYFPEPVTVSWNSGALTSGVHTFPAVLQSSGLYSLSSVVTVPSSSLGTQTYICNVNHKPSNTKVDKKVEPKSCDKTHT
light: DIQMTQSPSSLSASVGDRVTITCRASQSVSSAVAWYQQKPGKAPKLLIYSASSLYSGVPSRFSGSRSGTDFTLTISSLQPEDFATYYCQQHWWGYPLITFGQGTKVEIKRTVAAPSVFIFPPSDSQLKSGTASVVCLLNNFYPREAKVQWKVDNALQSGNSQESVTEQDSKDSTYSLSSTLTLSKADYEKHKVYACEVTHQGLSSPVTKSFNRGECGGSDYKDDDDK
notes: also called F3144
Regarding B2, the Kd in [6] is 1.8 nM; with mouse IL-18Rβ, 12.9 nM; in [9] it was 6.4 nM. The koff in assay [6] is 0.00058 s⁻¹; with mouse IL-18Rβ, 0.0012 s⁻¹; in assay [10], 0.0011 s⁻¹. For the same molecule, the kon in assay [6] amounted to 320000 M⁻¹ s⁻¹; in the assay with mouse IL-18Rβ, 93000 M⁻¹ s⁻¹; in assay [11] it was 170000 M⁻¹ s⁻¹. In assay [7], this molecule gave an EC50 of 16 nM. The molecule also came in with an IC50 in [8] of 19 nM. In [12], the “EC50 (read off the curve)” value was about 0.4 nM. In addition, the “IC50 (read off the curve)” value in assay [13] was about 2 nM.

B3: IgG 3131 (antibody, V domains shown)
VH: EVQLVESGGGLVQPGGSLRLSCAASGFNLYYSSMHWVRQAPGKGLEWVASIYSSYGYTYYADSVKGRFTISADTSKNTAYLQMNSLRAEDTAVYYCARSSFSHGYGWYGLDYWGQGTLVTVSS
VL: DIQMTQSPSSLSASVGDRVTITCRASQSVSSAVAWYQQKPGKAPKLLIYSASSLYSGVPSRFSGSRSGTDFTLTISSLQPEDFATYYCQQYGYHYAGLITFGQGTKVEIKR
notes: IgG made by sub-cloning the Fab CDR regions into IgG expression constructs; VL-CL with FLAG tag; also called I3131
Turning to B3, in the assay with Rhesus IL-18Rβ [14], the Kd is 3.9 nM, the koff amounted to 0.00015 s⁻¹ and the kon was found to be 38000 M⁻¹ s⁻¹. In addition, in the assay with Rhesus IL-18Rβ [15], the EC50 worked out at 11.5 nM.
